Consider two molecules from publication PMC5844793 (Bioorganic & medicinal chemistry, 2017).

“Also recorded” adds a separate entry of the source. Read-outs that look alike come from different tables or passages of the source. *1 amine or outer side, *2 acyl side, *3 side chain or, on linkers, in order; H or OH if unused. Bridges are numbered along the chain shown (N, C = ends). The star is where a group is joined. fluorescein = fluorescein: a label attached as NHS-fluorescein acylation on the lysine side chain (K*); pXylylene = c1cc(C[*:2])ccc1C[*:1]; Cysteamide = C(CS[*:3])N[*:1]; 4‑pentynyl = C#CCCC*

One assay deals with HeLa cells. Briefly: Cell-based transferrin. The settings on record: 50 μM during 60-min pulse and 30-min chase.
The next assay has as its target T1, 5-OX (linker 1-6 via ortho‑xylene (inferred)).
T1 chain: Ac-CNPFEC-OH
Briefly: fluorescence polarization competition. (In general: Polarisation of emitted light reports the rotation of a fluorescent probe.)

A further assay has as its target T2, 4-MX (bridge 1-C; not fully specified (bridges)).
T2 chain: {4‑pentynyl}-CNPFEE-Cysteamide
Briefly: fluorescence polarization competition.

A further assay concerns the target T3, 1-MX (thioether 1-C via meta‑xylene).
T3 chain: {4‑pentynyl}-CYNPFEE-Cysteamide
Briefly: fluorescence polarization competition.

The target in a further assay is T4, 3-OX (bridge 1-C; not fully specified (bridges)).
T4 chain: {4‑pentynyl}-CNPFE-Cysteamide
Briefly: fluorescence polarization competition.

For the next assay, the target named is T5, 1-PX (thioether 1-C via pXylylene (inferred)).
T5 chain: {4‑pentynyl}-CYNPFEE-Cysteamide
Briefly: fluorescence polarization competition.

The next assay deals with T6, cNPF1 (backbone cyclic).
T6 chain: YNPFEEGG
Briefly: fluorescence polarization competition.

The target of a further assay is T7, 4-PX (bridge 1-C; not fully specified (bridges)).
T7 chain: {4‑pentynyl}-CNPFEE-Cysteamide
Description: fluorescence polarization competition.

A further assay addresses T8, 4-OX (bridge 1-C; not fully specified (bridges)).
T8 chain: {4‑pentynyl}-CNPFEE-Cysteamide
Briefly: fluorescence polarization competition.

A further assay addresses T9, cNPF1Flu.
T9 chain: cyclo(YNPFEEGK(fluorescein))
Description: fluorescence polarization.

The target in assay [1] is Flu-3-OX.
For assay [2], the target named is Flu-3-OX. This is another data set of the same source.
For assay [3], the target named is Flu-1-PX.
The target in assay [4] is Flu-1-PX. The source holds these as a separate data set.
Assay [5] has as its target Flu-5-OX.
Assay [6] concerns the target Flu-5-OX. This is another data set of the same source.
The target of assay [7] is Flu-4-PX.
Assay [8] has as its target Flu-4-PX. The source holds these as a separate data set.

Regarding `COc1cc(NC(C)CCCN)c2ncccc2c1` (stereo not drawn) [primaquine], the “effect on trafficking/recycling of Tf-488” value in the assay on HeLa cells is on record as “increased signal following the chase, consistent with impaired recycling of internalized Tf-488; also recorded: inhibition of recycling”.

B1: EHD1-EH EH domain (protein)
chain: VGKDKPTYDEIFYTLSPVNGKITGANAKKEMVKSKLPNTVLGKIWKLADVDKDGLLDDEEFALANHLIKVKLEGHELPADLPPHLVPPSKRRHE
Regarding B1, the IC50 with 5-OX worked out at 34 µM; in the assay with 4-MX it was 88.1 µM; in the assay with 1-MX, 68.8 µM; with 3-OX, 76.5 µM; in the assay with 1-PX, 27.1 µM; in the assay with cNPF1 it was 55.5 µM. Further, the IC50 with 4-PX worked out at 38.9 µM; in the assay with 4-OX, 62.8 µM. The Kd in the assay with cNPF1Flu was 3 µM; with Flu-3-OX [1] it was 4.5 µM; with Flu-3-OX [2], 14.6 µM; in the assay with Flu-1-PX [3], 1.1 µM; with Flu-1-PX [4], 6 µM; with Flu-5-OX [5], 1.6 µM. In addition, the figures for the Kd with Flu-5-OX [6], with Flu-4-PX [7] and with Flu-4-PX [8] were 7.3 µM, 1.8 µM and 8.1 µM, respectively.

Usually IC50 stands for the point on the concentration scale where inhibition reaches its midpoint. A high value points to weaker potency. What is called Kd is the concentration at which binding is half-saturated. Lower therefore signals tighter binding.
